Measured values as given in patent publication US20170355992A1.

Assays:
[1] = target: prothrombin with an Alexa532 on the 271 cleavage site that was attached by mutating the arginine to a cysteine (UniProt P00734); experiment: FRET, Alexa488-FVa donor and Alexa532 prothrombin acceptor, with 2.5 µM RNA aptamer T18.3
[2] = target: prothrombin with an Alexa532 on the 271 cleavage site that was attached by mutating the arginine to a cysteine (UniProt P00734); experiment: FRET, Alexa488-FVa donor and Alexa532 prothrombin acceptor, buffer control

An emission percentage (FRET) [1] of 17.5% and an emission percentage (FRET) [2] of 16.3% were found for “FVa with Alexa488 on the 539 residue (from UniProt P12259 29-2224)” in this work.
